In publication PMC12610585 one finds Km data, which are given here for one protein.

Substrate in this data set: O=[N+]([O-])c1ccc(O[C@H]2O[C@H](CO)[C@H](O)[C@H](O)[C@H]2O)cc1
Put plainly: purified protein. Conditions: optimized conditions: 37 °C, pH 6.0, 10 min, 0-8 mM substrate.

As a reminder, the Km is the substrate concentration at which the rate is half of its maximum.

B1: Amuc_0517 (Akkermansia muciniphila ATCC BAA-835) (protein)
chain: QPRTTAILPVPGEKACRLPLPPYQAFCWFSADRGRWPGDGNRVLPWFGRTAPGNLLDSKPNPSTAKPGDHAMFALFHLKDGNFMAVLPVAAPDSLAWLKLERDGTFLVEAGSLGTSPAKPQAVLAVTATDKDIYRACSAVWDKALSLPFIKGRTLPREKKIYPEPFKYLGWCSWEQYKKNISSKLLEETARKLEASPVPVRWMLVDDGFQTQERLQLVSFQPRQDQFPRGWQPLMKHKSPKLKWMGLWHCYYGLWNGIHPRHRLDDETARGLVRTAKGKILPGDGSGGAGAFYTPFLQSVKDTGFDFVKIDVQAEYLKHADGLDNPVRHNTKCSEALEQACLKTGLSLVNCMAQGTVNIQNTRYSAVTRCSIDYKLGDEAMAKSHILQSYANTLWLGQTVWPDHDMFHSTDPACARLMAVSKAVSGGPVYLSDPADKLNPENIMPLVWSDGLLLRPLAPAVPLPDSVFPDALNENRLYRVIAPLPGQSAAVVVYNLKHPSPAEPVRGKISLEDYKNAAALLNGNAAEAYASLPAEGIAAYSAEGGRALTPAQPDLDVELTGFKDRLFIMAPIVQGWAVIGRRDKFLSPCALVSAPGYRENGLRFRVKESGPVVIWRGKGPVKAGNTPVRNLGNGFYELQFPVSDHPLDITVTAE
As to B1, the Km turned out to be 8.2 mM.
